In the supplement of paper PMC9732359:
± gives the uncertainty stated by the source.

Assay: protein stability index of a GFP-peptide fusion (yeast GPS) (PSI 1-4); higher = more stable; sorted into four equal gates, so the index is relative within each strain
Method in brief: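 The protein stability index combines read frequencies across sorting gates, each weighted by its gate number and then summed. To obtain those frequencies, a pooled yeast library of GFP fusions to tiled 17-residue yeast protein peptides, on a plasmid also expressing Cherry, was grown to mid-log phase in leucine-free medium. The cells were sorted into four equal gates by GFP/Cherry ratio before plasmid amplification by PCR and Illumina sequencing.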

Sequence	protein stability index (doa10∆)	protein stability index (pdr5∆)	protein stability index (san1∆)	protein stability index (ubr1∆)
EKLYIFYKLNMPDEFNT [SRP72]	2.13 ± 0.043	1.96 ± 0.053	1.91 ± 0.078	1.6 ± 0.041
IETLDPALIRPGRIDRK [RPT2]	2.53 ± 0.26	3.18 ± 0.19	2.88 ± 0.24	3.02 ± 0.2
EVIGYIAAGTYGKVYKA [SSN3]	2.01 ± 0.05	2.25 ± 0.042	2.17 ± 0.069	1.9 ± 0.045
GDVKNMEDVKIQKEEEP [SWI3]	3.45 ± 0.14	3.4 ± 0.2	3.43 ± 0.085	3.14 ± 0.12
KKRSKARKETYSSYIYK [HTB1]	2.84 ± 0.24	2.9 ± 0.15		2.95 ± 0.15
AGGQRIVDDYWESLAKK [SWP82]	1.84 ± 0.19	2.42 ± 0.092	2.45 ± 0.13	2.39 ± 0.15
GPSIYKTDPAGYYVGYK [SCL1]	3.17 ± 0.092	3.4 ± 0.08	3.33 ± 0.059	3.38 ± 0.091
KRQELEEASQQQQLQQN [MED2]	2.75 ± 0.056	2.65 ± 0.083	2.48 ± 0.059	2.63 ± 0.061
LLRQKIEQCKHPLHELI [ISW2]	1.37 ± 0.088	1.49 ± 0.081	1.45 ± 0.22	1.48 ± 0.12
VMYGTAYKFEEVSKDLI [RPB8]	2.9 ± 0.062	3.18 ± 0.061	3.34 ± 0.044	3.09 ± 0.051
TVTLNKNREVVQVSKAG [RRP45]	2.8 ± 0.092	2.98 ± 0.075	2.76 ± 0.065	2.82 ± 0.065
NTCTISTSKFESQYPIV [SWP82]	2.57 ± 0.089	2.67 ± 0.11	2.97 ± 0.074	2.81 ± 0.071
KTPVFTTGGDYILSLVS [YMR129W/POM152]	2.06 ± 0.056	2.13 ± 0.058	1.74 ± 0.064	1.87 ± 0.044
AELKLAGEFGLKNKKEI [RPS9A]	3.08 ± 0.11	3.21 ± 0.15	3.2 ± 0.18	3.21 ± 0.12
PSQFGMLCTADTPEGEA [RET1]		1.7 ± 0.23	2.58 ± 0.22	
TDEALFENVKLLAEYDN [MED4]	3.02 ± 0.11	3.17 ± 0.1	3.08 ± 0.088	2.87 ± 0.073
KNPRVTKEYLVQNLRSW [CSN9]		3 ± 0.3	3.16 ± 0.11	3.36 ± 0.091
GSKSDGSAATSGFEFSK [RPN1]	2.7 ± 0.14	3.09 ± 0.14	2.72 ± 0.14	3.1 ± 0.12
ELLEHIETIGHLITKEE [RPN5]	2.91 ± 0.076	3.03 ± 0.11	3.08 ± 0.068	3.12 ± 0.076
AASAAGYDRHITIFSPE [SCL1]	2.86 ± 0.11	2.76 ± 0.075	2.87 ± 0.064	2.95 ± 0.051
SGTPITQTESKKEENET [SNF2]	2.77 ± 0.052	2.59 ± 0.045	2.94 ± 0.046	2.82 ± 0.036
QAPTELELQVAQAFVEL [RPS7A]	2.53 ± 0.055	2.82 ± 0.063	2.59 ± 0.047	2.45 ± 0.046
NGVVKKAAAGAGSAALK [RPO31]	3.51 ± 0.13	3.11 ± 0.27	3.47 ± 0.12	
VFTMKELAQYMKTNVHT [RGR1]	2.66 ± 0.1	2.84 ± 0.13	2.6 ± 0.082	2.69 ± 0.057
NLTAGIIVAGYDDKNKG [PRE3]	2 ± 0.071	2.75 ± 0.096	2.53 ± 0.12	2.16 ± 0.077
LFAGYTDNVIRVWQVMT [ASC1]	1.61 ± 0.064	2.07 ± 0.057	1.86 ± 0.099	2.06 ± 0.066

Sequence	protein stability index (doa10∆)	protein stability index (pdr5∆)	protein stability index (san1∆)	protein stability index (ubr1∆)
IMGFISYHNGNLKGRPY [FAS2]	3 ± 0.13	2.95 ± 0.11	3.28 ± 0.057	3.01 ± 0.12
MSQSTASLVPEGNQGSL [MED8]	3.16 ± 0.12	2.97 ± 0.1	2.62 ± 0.096	2.76 ± 0.13
GSDKQMFTQIYLERIEL [YML103C/NUP188]	2.5 ± 0.095	2.36 ± 0.086	1.62 ± 0.23	1.53 ± 0.048
MDYHFIFSYLQFTSSLF [RGR1]	2.08 ± 0.046	1.39 ± 0.043	1.25 ± 0.076	1.21 ± 0.047
KLASTLEKISSSNKDLE [SMC4]	3.09 ± 0.053	2.68 ± 0.067	2.96 ± 0.038	2.82 ± 0.056
ALLIEVFTALLRLFINE [ITC1]	2.11 ± 0.087	1.53 ± 0.076	1.42 ± 0.097	1.24 ± 0.051
PPPPPPPGYEIEELDNP [PRP8]	2.87 ± 0.046	2.98 ± 0.04	3.04 ± 0.048	3.03 ± 0.033
KIFWERLKEINGWEKYL [ISW2]				1.46 ± 0.24
LGLCCLLDVKLAIDNMY [YCG1]	1.52 ± 0.045	1.51 ± 0.04	1.78 ± 0.067	1.88 ± 0.044
DYSEIQRSRRKFSERRK [DSN1]	2.86 ± 0.095	3.35 ± 0.24	3.46 ± 0.087	2.75 ± 0.16
CPEEFAESMCQELELPG [SNF5]	3.25 ± 0.073	3 ± 0.074	2.71 ± 0.07	3.03 ± 0.075
LVRYGLAEKVEKASRQQ [RPS24A]		3.33 ± 0.11	3.38 ± 0.098	3.19 ± 0.19
QLLTPGSKISSNDLDKF [YGL172W/NUP49]	2.88 ± 0.19	2.85 ± 0.084	3.13 ± 0.1	2.54 ± 0.2
ALCKNRKCQFRTPDSIS [POP1]	2.31 ± 0.053	2.77 ± 0.058	2.28 ± 0.082	1.94 ± 0.036
AKSDETKQASSFSFLNR [YLR335W/NUP2]	3.35 ± 0.069	3.39 ± 0.099	3.26 ± 0.044	3.31 ± 0.05
LLRALKTNEESAKMILL [PRP8]	3.05 ± 0.099	2.98 ± 0.1	2.86 ± 0.071	2.92 ± 0.037
VYYSKRGFKVGLVCADT [SRP54]	2.41 ± 0.12	2.29 ± 0.073	2.19 ± 0.098	2.5 ± 0.054
KVKLFHGILDDLETSLS [MED2]	3.17 ± 0.084	3.09 ± 0.075	3.14 ± 0.072	3.36 ± 0.055
PPTTSNLIIFLYKFNGW [YML103C/NUP188]	1.76 ± 0.046	2.26 ± 0.045	2.32 ± 0.058	2.53 ± 0.051
FTCSCNSLTVDGNNANY [RPN14]	2.8 ± 0.074	2.81 ± 0.076	2.69 ± 0.058	2.75 ± 0.044
SLSNPNSTATMQHNPLA [PGD1]	2.86 ± 0.04	3.1 ± 0.039	2.96 ± 0.034	2.967 ± 0.029
GIDPQDLKKLNLNVYIQ [CDC53]	1.68 ± 0.14	1.7 ± 0.12	1.42 ± 0.1	1.19 ± 0.083
PIPFEFQAVIQKSINHP [SNF2]	2.67 ± 0.11	2.61 ± 0.081	2.37 ± 0.077	2.86 ± 0.057
VSEVAKIMQEATQSGGV [PRE8]	2.96 ± 0.11	2.77 ± 0.17	2.77 ± 0.15	3.05 ± 0.097
SLVNSYIIDSPQPSSIN [COB]	1.51 ± 0.085	1.59 ± 0.08	1.64 ± 0.15	1.32 ± 0.081
QQQIIKIRITLTSTKVK [RPS20]	1.91 ± 0.056	1.84 ± 0.048	1.59 ± 0.1	2.71 ± 0.043

Sequence	protein stability index (doa10∆)	protein stability index (pdr5∆)	protein stability index (san1∆)	protein stability index (ubr1∆)
KKQNLSSHQRVFKLSTN [SWP82]	1.94 ± 0.052	2.08 ± 0.052	2.05 ± 0.068	2.06 ± 0.043
PALESSPVTGDNSPSED [SNF2]	3.25 ± 0.067	3.29 ± 0.066	3.14 ± 0.069	3.33 ± 0.041
KSRMINFLDAPGHVNFM [SNU114]		2.65 ± 0.17	3.06 ± 0.12	3.57 ± 0.28
RARLKGKEGRIRGNLMG [RPO21]	3.37 ± 0.097	3.19 ± 0.12	3.32 ± 0.088	2.96 ± 0.081
EAASSNKSFIVDQGQIY [ITC1]	2.92 ± 0.1	2.95 ± 0.068	2.89 ± 0.044	2.93 ± 0.05
LIGCIDEAKDFIVSGTA [PUP3]	2.59 ± 0.058	2.67 ± 0.061	2.66 ± 0.053	3.01 ± 0.044
KKLSKKYNAFIASEVLI [RPL1A]	1.45 ± 0.026	1.9 ± 0.025	1.8 ± 0.052	1.67 ± 0.023
LGNSIVKESNNYYSNKS [REC8]	2.68 ± 0.15		2.94 ± 0.3	
SDNNSRIMSRNFYLKRF [SWI1]	2.73 ± 0.066	2.67 ± 0.079	2.95 ± 0.099	3.09 ± 0.063
EHFSDEETYEEKPQFKD [RPO26]	3.51 ± 0.1	3.35 ± 0.2	3.25 ± 0.15	3.34 ± 0.1
ERYSDKYLKKRKIGISI [RPC31]	1.61 ± 0.11	2.39 ± 0.23		2.44 ± 0.21
AEFKKENLADLDYQIGN [LIN1]	3.29 ± 0.086	3.32 ± 0.068	3.24 ± 0.057	3.26 ± 0.071
IRAIRKVISEILTKEVQ [RPS1A]	1.714 ± 0.013	1.89 ± 0.012	1.83 ± 0.021	1.966 ± 0.011
YHLLNYDPIKRIDAFNA [SSN3]	2.33 ± 0.065	1.77 ± 0.04	1.6 ± 0.074	1.73 ± 0.031
TYVEELFPIVKKHGKTD [YJL039C/NUP192]	3.33 ± 0.14	3.44 ± 0.11	3.32 ± 0.12	3.19 ± 0.091
PIPSKPTLFDLAFNYIT [SRP68]	1.64 ± 0.051	1.54 ± 0.046	1.74 ± 0.071	2.02 ± 0.046
SLTTVWAEHLSDEVKRR [RPL3]	2.87 ± 0.13	2.85 ± 0.18		3 ± 0.18
EEEKELTEEELKTRYVG [RPN11]	3.68 ± 0.2	3.44 ± 0.12	3.4 ± 0.067	3.5 ± 0.14
SQLDLFLRTMKLTSEET [GRR1]	2.77 ± 0.055	2.7 ± 0.052	3 ± 0.06	3.09 ± 0.043
THQSPPPPPQQSQPIAN [SNF5]	3.01 ± 0.057	3.07 ± 0.043	2.98 ± 0.04	2.94 ± 0.046
PEDPYFNTLVRIMSTRC [DIS3]	2.38 ± 0.093	2.72 ± 0.072	2.56 ± 0.052	1.92 ± 0.049
VTDDPIWMRGHGTYFLD [RRP4]	3.22 ± 0.067	3.17 ± 0.078	3.47 ± 0.056	3.07 ± 0.065
ANAAKRAEAKAQGVAVQ [RPL21A]	2.55 ± 0.13	1.96 ± 0.13	2.06 ± 0.28	1.92 ± 0.14
DSFKYEPLAPGNDNLIK [YLR335W/NUP2]	2.61 ± 0.061	2.75 ± 0.045	2.63 ± 0.045	2.85 ± 0.044
KMLKIWTMAFRTMDDIK [ECM29]	2.03 ± 0.11	1.76 ± 0.1	2.06 ± 0.12	1.96 ± 0.075
TITDLIEQGIPKHSYLS [SIR4]	3.05 ± 0.059	3.16 ± 0.06	3.21 ± 0.073	3.17 ± 0.043
